From patent US10584350B2, “Structurally modified COI1” (Board of Trustees of Michigan State University, priority 2016, dated 2020)
Residue numbers refer to the chain shown, from its start. Names and notes keep the numbering of the source.

B1: Y302A: COI1 alanine substitution mutant at Y302 (protein)
chain: MEDPDIKRCKLSCVATVDDVIEQVMTYITDPKDRDSASLVCRRWFKIDSETREHVTMALCYTATPDRLSRRFPNLRSLKLKGKPRAAMFNLIPENWGGYVTPWVTEISNNLRQLKSVHFRRMIVSDLDLDRLAKARADDLETLKLDKCSGFTTDGLLSIVTHCRKIKTLLMEESSFSEKDGKWLHELAQHNTSLEVLNFYMTEFAKISPKDLETIARNCRSLVSVKVGDFEILELVGFFKAAANLEEFCGGSLNEDIGMPEKYMNLVFPRKLCRLGLSYMGPNEMPILFPFAAQIRKLDLLAALLETEDHCTLIQKCPNLEVLETRNVIGDRGLEVLAQYCKQLKRLRIERGADEQGMEDEEGLVSQRGLIALAQGCQELEYMAVYVSDITNESLESIGTYLKNLCDFRLVLLDREERITDLPLDNGVRSLLIGCKKLRRFAFYLRQGGLTDLGLSYIGQYSPNVRWMLLGYVGESDEGLMEFSRGCPNLQKLEMRGCCFSERAIAAAVTKLPSLRYLWVQGYRASMTGQDLMQMARPYWNIELIPSRRVPEVNQQGEIREMEHPAHILAYYSLAGQRTDCPTTVRVLKEPI
B2: D354: COI1 alanine substitution mutant at D354 (protein, UniProt O04197 1-592, looked up, variant D354A)
Coronatine-insensitive …: B1 chain with A302Y, D354A
B3: R351: COI1 alanine substitution mutant at R351 (protein, UniProt O04197 1-592, looked up, variant R351A)
Coronatine-insensitive …: B1 chain with A302Y, R351A
B4: G357: COI1 alanine substitution mutant at G357 (protein, UniProt O04197 1-592, looked up, variant G357A)
Coronatine-insensitive …: B1 chain with A302Y, G357A
B5: E173: COI1 alanine substitution mutant at E173 (protein, UniProt O04197 1-592, looked up, variant E173A)
Coronatine-insensitive …: B1 chain with E173A, A302Y
B6: F89: COI1 alanine substitution mutant at F89 (protein, UniProt O04197 1-592, looked up, variant F89A)
Coronatine-insensitive …: B1 chain with F89A, A302Y
B7: L91: COI1 alanine substitution mutant at L91 (protein, UniProt O04197 1-592, looked up, variant L91A)
Coronatine-insensitive …: B1 chain with L91A, A302Y
B8: R348: COI1 alanine substitution mutant at R348 (protein, UniProt O04197 1-592, looked up, variant R348A)
Coronatine-insensitive …: B1 chain with A302Y, R348A
B9: R326A: COI1 alanine substitution mutant at R326 (protein)
chain: B1 chain with A302Y, R326A
B10: Y444A: COI1 alanine substitution mutant at Y444 (protein)
chain: B1 chain with A302Y, Y444A
B11: R121: COI1 alanine substitution mutant at R121 (protein, UniProt O04197 1-592, looked up, variant R121A)
Coronatine-insensitive …: B1 chain with R121A, A302Y
B12: A384G: COI1 substitution mutant at A384 (protein)
chain: B1 chain with A302Y, A384G
B13: A384D: COI1 substitution mutant at A384 (protein)
chain: B1 chain with A302Y, A384D
B14: COI1A86V: COI1 mutant, alanine 86 substituted with valine (protein)
chain: B1 chain with A86V, A302Y
modifications: left off: small tags and cut ends
notes: COI1 mutant, alanine 86 substituted with valine
B15: A384C: COI1 substitution mutant at A384 (protein)
chain: B1 chain with A302Y, A384C
B16: COI1A384I: COI1 mutant, alanine 384 substituted with isoleucine (protein)
chain: B1 chain with A302Y, A384I
modifications: left off: small tags and cut ends
notes: COI1 mutant, alanine 384 substituted with isoleucine
B17: COI1A86I: COI1 mutant, alanine 86 substituted with isoleucine (protein)
chain: B1 chain with A86I, A302Y
modifications: left off: small tags and cut ends
notes: COI1 mutant, alanine 86 substituted with isoleucine
B18: COI1A384S: COI1 mutant, alanine 384 substituted with serine (protein)
chain: B1 chain with A302Y, A384S
modifications: left off: small tags and cut ends
notes: COI1 mutant, alanine 384 substituted with serine
B19: R85A: COI1 alanine substitution mutant at R85 (protein)
chain: B1 chain with R85A, A302Y

System: COI1-JAZ9 interaction
Assay: Y2H assays on plates for protein-protein interaction
Assay type: cell-based, Arabidopsis
Details: 10 μM COR, yeast
Procedure: (§1) Yeast EGY48 strain carrying the p8Op:LacZ reporter plasmid was co-transformed with pGilda:COI1 (or COI1 mutants) and pB42AD:JAZ9 (or other JAZs) (Clontech). Colonies were selected on SD minimal plates (BD Biosciences) supplemented with the—uracil (U)/-tryptophan (W)/-histidine (H) amino acid drop out solution (Clontech). Yeast colonies were cultured overnight in liquid SD-UWH medium, harvested, washed twice in sterile water, and the absorbance (OD600) of the cultures was adjusted to 0.2 in liquid SD galactose/raffinose-UWH medium (BD Biosciences).
For Y2H assays on plates, 10-μL culture was spotted onto SD galactose/raffinose-UWH plates with 80 μg/mL X-gal and 10 μM COR (Sigma-Aldrich). Blue color indicated protein-protein interactions after 5-7 days of incubation at 30° C.

**Q.** Which “COR-dependent COI1-JAZ9 interaction” value does the source give for B1 here?
**A.** disrupted

**Q.** For B2, which “COR-dependent COI1-JAZ9 interaction” value is on record?
**A.** reduced

**Q.** With B3 as the molecule, how does the “COR-dependent COI1-JAZ9 interaction” value read?
**A.** reduced

**Q.** With B4 as the molecule, how does the “COR-dependent COI1-JAZ9 interaction” value read?
**A.** reduced

**Q.** B5 was tested. Which “COR-dependent COI1-JAZ9 interaction” value did it give?
**A.** reduced

**Q.** How did the “COR-dependent COI1-JAZ9 interaction” value turn out when B6 was run?
**A.** reduced

**Q.** With B7 as the molecule, how does the “COR-dependent COI1-JAZ9 interaction” value read?
**A.** reduced

**Q.** B8 was tested. Which “COR-dependent COI1-JAZ9 interaction” value did it give?
**A.** reduced

**Q.** How did the “COR-dependent COI1-JAZ9 interaction” value turn out when B9 was run?
**A.** disrupted

**Q.** For B10, which “COR-dependent COI1-JAZ9 interaction” value is on record?
**A.** disrupted

**Q.** B11 was tested. Which “COR-dependent COI1-JAZ9 interaction” value did it give?
**A.** reduced

Same assay, conditions: 10 μM COR, yeast, listed as R326

**Q.** B9 was tested. Which “COR-dependent COI1-JAZ9 interaction” value did it give?
**A.** reduced

Same assay, conditions: 10 μM COR, yeast, listed as Y302

**Q.** How did the “COR-dependent COI1-JAZ9 interaction” value turn out when B1 was run?
**A.** reduced

Same assay, conditions: 10 μM COR, yeast, listed as Y444

**Q.** B10 was tested. Which “COR-dependent COI1-JAZ9 interaction” value did it give?
**A.** reduced

System: COI1-JAZ9 interaction
Assay: Quantitative liquid Y2H assays (Beta-Glo, RLU)
Assay type: cell-based, Arabidopsis
Details: liquid Y2H, 1 μM COR, yeast
Procedure: as §1
For liquid Y2H assays, cultures were supplemented with designated concentrations of JA-Ile (10 or 30 μM), COR (1 μM), or DMSO. After 16-h incubation with ligands, the liquid cultures were processed through the Beta-Glo Assay system (Promega) for detecting the β-galactosidase activity. […] Protein expression in yeast was detected using anti-LexA antibody (1:5,000; Upstate Biotechnology) for detection of COI1 expression from pGilda vector and anti-HA (1:5,000; Roche Life Science) antibody for detection of JAZ9 expression in pB42AD vector.

**Q.** How did the “COR-dependent COI1-JAZ9 interaction” value turn out when B12 was run?
**A.** completely disrupted

**Q.** B13 was tested. Which “COR-dependent COI1-JAZ9 interaction” value did it give?
**A.** completely disrupted

**Q.** How did the “COR-dependent COI1-JAZ9 interaction” value turn out when B14 was run?
**A.** reduced

**Q.** For B15, which “COR-dependent COI1-JAZ9 interaction” value is on record?
**A.** reduced

**Q.** With B16 as the molecule, how does the “COR-dependent COI1-JAZ9 interaction” value read?
**A.** disrupted

**Q.** For B17, which “COR-dependent COI1-JAZ9 interaction” value is on record?
**A.** reduced

Same assay, conditions: liquid Y2H, 10 or 30 μM JA-Ile, yeast

**Q.** B12 was tested. Which “JA-Ile-dependent COI1-JAZ9 interaction” value did it give?
**A.** completely disrupted

**Q.** Which “JA-Ile-dependent COI1-JAZ9 interaction” value does the source give for B13 here?
**A.** completely disrupted

**Q.** Which “JA-Ile-dependent COI1-JAZ9 interaction” value does the source give for B14 here?
**A.** abolished

**Q.** Which “JA-Ile-dependent COI1-JAZ9 interaction” value does the source give for B18 here?
**A.** reduced

**Q.** B15 was tested. Which “JA-Ile-dependent COI1-JAZ9 interaction” value did it give?
**A.** reduced

**Q.** For B16, which “JA-Ile-dependent COI1-JAZ9 interaction” value is on record?
**A.** disrupted

**Q.** For B17, which “JA-Ile-dependent COI1-JAZ9 interaction” value is on record?
**A.** abolished

Same assay, conditions: liquid Y2H, yeast

**Q.** How did the “differential effect on JA-Ile-dependent vs COR-dependent COI1-JAZ9 interaction” value turn out when B19 was run?
**A.** affect JAIle-dependent interaction more than COR-dependent interaction

Same assay, conditions: yeast; JA-Ile is a mixture of active and inactive isomers, COR pure

**Q.** `CC/C=C\C[C@H]1C(=O)CC[C@@H]1CC(=O)N[C@H](C(=O)O)[C@@H](C)CC` [JA-Ile, jasmonoyl-L-isoleucine, reference compound] was tested. Which “concentrations equivalent in promoting the COI1-JAZ9 interaction” value did it give?
**A.** 10 µM
